Results published in paper doi:10.1101/2025.03.09.642192.

How the values were obtained:
[1] = target: HAdV-C5 hexon protein (HAdV-C5) (UniProt P04133); assay: SPR
[2] = target: purified hexon protein from ChAdOx1 (chimpanzee adenovirus Y25 (ChAdOx1)); assay: SPR

Chain of HAdV-C5 hexon protein (HAdV-C5) (P04133 whole entry): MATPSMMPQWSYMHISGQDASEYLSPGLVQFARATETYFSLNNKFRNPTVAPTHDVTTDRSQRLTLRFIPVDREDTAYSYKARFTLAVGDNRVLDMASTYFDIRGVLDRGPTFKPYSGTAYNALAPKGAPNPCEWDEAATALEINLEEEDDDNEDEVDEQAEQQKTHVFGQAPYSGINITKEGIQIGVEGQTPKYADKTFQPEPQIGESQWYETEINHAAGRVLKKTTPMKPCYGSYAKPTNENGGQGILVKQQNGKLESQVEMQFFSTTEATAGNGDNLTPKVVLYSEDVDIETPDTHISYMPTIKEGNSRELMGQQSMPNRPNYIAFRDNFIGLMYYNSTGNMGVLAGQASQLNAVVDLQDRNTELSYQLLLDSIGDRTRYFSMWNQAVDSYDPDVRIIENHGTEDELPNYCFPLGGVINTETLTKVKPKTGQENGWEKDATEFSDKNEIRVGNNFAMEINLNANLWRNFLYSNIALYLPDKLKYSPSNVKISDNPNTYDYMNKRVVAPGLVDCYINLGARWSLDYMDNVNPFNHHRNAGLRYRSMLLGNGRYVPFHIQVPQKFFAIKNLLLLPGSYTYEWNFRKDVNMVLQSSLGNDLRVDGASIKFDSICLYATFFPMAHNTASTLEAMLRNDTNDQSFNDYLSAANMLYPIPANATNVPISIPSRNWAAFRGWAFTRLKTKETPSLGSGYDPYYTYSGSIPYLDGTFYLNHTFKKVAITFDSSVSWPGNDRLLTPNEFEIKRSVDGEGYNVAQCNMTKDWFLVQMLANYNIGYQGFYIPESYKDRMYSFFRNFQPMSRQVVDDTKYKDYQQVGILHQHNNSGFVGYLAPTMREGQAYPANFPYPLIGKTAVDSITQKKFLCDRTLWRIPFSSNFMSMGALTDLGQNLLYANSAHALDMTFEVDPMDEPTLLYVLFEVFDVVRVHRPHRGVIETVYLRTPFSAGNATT

With “platelet factor 4 (PF4) (natural protein)” the Kd [1] was 767 nM and the Kd [2] was 296 nM.
